The source of these data is patent US20230295288A1 (TILLOTTS PHARMA, published 2023).

Substitutions are numbered along the chain they refer to.

In test [1] the target is T1, TNFα (human, UniProt P01375 77-233). The test is described as follows: cell-based or functional assay.
The target in test [2] is T2, monomeric His-tagged human FcRn (human, UniProt P55899 24-297; P61769 21-119).
T2 construct: The b2m chain is an addition from general knowledge; also called hFcRn; neonatal Fc receptor
The test is described as follows: SPR, pH 6.0, KD against that of Ab-wt; pH 6.0; KD ratio to Ab-wt. For orientation: Surface plasmon resonance follows binding to a sensor surface in real time, without labels.
Description: (§1) SPR was performed using a Biacore 3000 instrument with CM5 sensor chips coupled with anti-TNFα IgG1 antibodies (˜500 resonance units (RU)) using amine-coupling chemistry as described by the manufacturer. The coupling was performed by injecting 2.0 ug/mL of each protein in 10 mM sodium acetate, pH 4.5, using the amine-coupling kit (GE Healthcare). […] All SPR experiments were conducted at 25° C. with a flow rate of 40 ul/min. Binding data were zero-adjusted, and reference cell value subtracted. The Langmuir 1:1 ligand binding model provided by the BlAevaluation software (version 4.1) was used to determine the binding kinetics.

For test [3], the target named is T2, monomeric His-tagged human FcRn. Nature of the test: SPR, pH 6.0, KD against that of infliximab; pH 6.0; KD ratio to IFX.
Description: as §1
Test [4] addresses T1, TNFα. The test is described as follows: SPR (Biacore), antibody captured on Protein A, TNFα as analyte, single cycle kinetics, 1:1 model, 25 °C.
Description: Affinity to TNFα was measured by Biacore. A CM5 chip was prepared using standard amine immobilisation Biacore procedures. Upon insertion of a CM5 chip the system was primed and then normalised with BIA-normalising solution (Biacore Preventative Maintenance Kit 2). The chip was added to the system with Phosphate Buffered Saline Tween-20 (PBS-T) running buffer; prior to immobilisation the chip surface was primed with three injections of 50 mM NaOH. Protein A was immobilised on the chip surface. For this, the protein was diluted to 5 μg/mL into 10 mM acetate buffer at pH 4.5 and injected so to generate a bound response of ˜1000 RU's in all 4 flow cells. To remove non-covalently bound material from all the chip flow cells, three 15 second 50 mM NaOH washes were performed. On the Protein A chip, antibody was captured in flow cells 2 and 4, with flow cells 1 and 3 used for reference subtraction. The trial antibodies were diluted in PBS-T to 10 nM and 2.5-7.5 uL injected to obtain 120 RU of captured antibody. […] For each single cycle analysis cycle a titration of 5 analyte concentrations were injected over the ligand and then the dissociation of the complex was measured. The surface was regenerated using glycine pH 1.7. A double referencing method was employed in which data from the ligand bound capture surface (fc 2 and 4) were subtracted from the references surfaces where no ligand was captured (fc 1 and 3 respectively). Blank injections of buffer were run every 3-4 cycles and then subtracted from analyte injection cycles, to correct for small changes in the ligand capture surface. Repeat injections of analyte at the start and end of each analytical run were used to check for sample degradation, or changes in the instrument performance. All analysis was performed at 25° C. and the sample rack was incubated at 10° C. during experimental runs. Each experiment was run at least three times. A 1-to-1 binding model was used to fit the resulting kinetic data.
The next test concerns the target T3, CD16a(V) (UniProt P08637 17-208).
T3 construct: Captured on an anti-His tag chip, so it carried a His tag; also called Fcγ receptor CD16a(V)
The test is described as follows: SPR (Biacore), His-tagged FcγR captured on anti-His chip, antibody as analyte, single cycle kinetics, 25 °C.

A further test deals with T4, CD16a(F) (UniProt P08637 17-208).
T4 construct: Captured on an anti-His tag chip, so it carried a His tag
T4 sequence (P08637 17-208 limits assumed): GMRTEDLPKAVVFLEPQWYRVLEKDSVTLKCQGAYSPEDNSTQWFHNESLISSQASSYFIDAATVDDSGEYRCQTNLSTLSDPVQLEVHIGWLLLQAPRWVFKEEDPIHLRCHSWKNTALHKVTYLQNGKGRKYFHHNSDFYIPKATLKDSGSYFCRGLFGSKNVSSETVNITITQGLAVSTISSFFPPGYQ
Described as above.

Another test concerns the target T5, CD16b(NA2) (UniProt O75015 17-200, limits assumed).
T5 construct: Captured on an anti-His tag chip, so it carried a His tag
Described as above.

Test [5] deals with T2, monomeric His-tagged human FcRn. The test is described as follows: SPR (Biacore 3000), antibody amine-coupled, monomeric His-tagged hFcRn as analyte, pH 6.0, 1:1 Langmuir model, 25 °C; pH 6.0.
Description: as §1

T1 sequence (P01375 77-233 limits assumed): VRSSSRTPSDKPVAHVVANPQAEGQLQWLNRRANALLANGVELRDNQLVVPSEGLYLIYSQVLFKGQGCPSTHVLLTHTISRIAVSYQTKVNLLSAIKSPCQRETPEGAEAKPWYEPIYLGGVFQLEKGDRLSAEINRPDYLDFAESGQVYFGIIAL
T3 sequence (P08637 17-208 F176V limits assumed): as the sequence (P08637 17-208 limits assumed) above, with F160V counted along it
T5 sequence (O75015 17-200 N65S limits assumed): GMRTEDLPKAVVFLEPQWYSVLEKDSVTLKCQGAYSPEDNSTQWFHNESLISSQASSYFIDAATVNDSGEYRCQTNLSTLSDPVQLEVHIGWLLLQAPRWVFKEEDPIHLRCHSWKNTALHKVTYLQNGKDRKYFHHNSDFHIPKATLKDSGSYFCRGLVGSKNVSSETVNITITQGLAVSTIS
T2 sequence (P55899 24-297 limits assumed, chain 1 of 2): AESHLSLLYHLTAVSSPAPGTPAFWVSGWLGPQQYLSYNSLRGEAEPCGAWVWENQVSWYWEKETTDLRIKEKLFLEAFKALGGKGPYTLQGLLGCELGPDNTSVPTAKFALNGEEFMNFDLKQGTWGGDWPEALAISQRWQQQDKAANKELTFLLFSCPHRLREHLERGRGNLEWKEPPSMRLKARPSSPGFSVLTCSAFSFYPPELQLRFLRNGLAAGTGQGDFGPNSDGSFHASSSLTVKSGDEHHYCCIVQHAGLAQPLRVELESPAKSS
T2 sequence (P61769 21-119 limits assumed, chain 2 of 2): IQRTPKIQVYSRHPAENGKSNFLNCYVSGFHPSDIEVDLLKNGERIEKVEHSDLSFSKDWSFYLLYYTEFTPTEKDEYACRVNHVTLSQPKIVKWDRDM
Description for CD16a(F): (§2) Affinity to FcγRs was measured by Biacore. A CM5 chip was prepared using standard amine immobilisation Biacore procedures. Upon insertion of a CM5 chip the system was primed and then normalised with BIA-normalizing solution (Biacore Preventative Maintenance Kit 2). The chip was added to the system with PBS-T running buffer; prior to immobilisation the chip surface was primed with three injections of 50 mM NaOH. FcγRs were immobilised on the chip surface using a His-tag capture system. The anti-His tag chip was prepared according to the Biacore kit instructions, with ˜12000 RU's of the antibody deposited on all 4 flow cells. To remove non-covalently bound material from all the chip flow cells, three 30 second 10 mM glycine pH 1.5 washes were performed. The Fcγ receptors were diluted in PBS-T to a range of 0.5-2 μg/mL, with 2.5-5.0 μL injected onto the chip generating capture levels between 60 and 200 RU's. Antibodies were diluted into PBS-T prior to analysis. Single cycle kinetics were used to estimate the steady state affinity. For each single cycle analysis cycle a titration of 5 antibody concentrations were injected over the FcγR ligand and then the dissociation of the complex was measured. The surface was regenerated using the recommended solution, 10 mM glycine pH 1.5 for the anti-His capture surface. A double referencing method was employed in which data from the ligand bound capture surface (fc 2 and 4) were subtracted from the references surfaces where no ligand was captured (fc 1 and 3 respectively). Blank injections of buffer were run for every antibody titration cycle and then subtracted from analyte injection cycles, to correct for small changes in the ligand capture surface. All analysis was performed at 25° C. and the sample rack was incubated at 10° C. during experimental runs. Each experiment was run at least three times.
Description for CD16a(V): as §2
Description for CD16b(NA2): as §2

B1: Ab-A-DLE-PVAΔG (antibody, human IgG1, kappa)
heavy: EVQLVESGGGLVQPGGSLRLSCKASGIDFNNYGIGWVRQAPGKGLEWITYIYPGFAITNFANSVKGRFTISSDNSKNTVYLQMNSLRAEDTAVYYCARDPVYATSSGYFDLWGQGTLVTVSSASTKGPSVFPLAPSSKSTSGGTAALGCLVKDYFPEPVTVSWNSGALTSGVHTFPAVLQSSGLYSLSSVVTVPSSSLGTQTYICNVNHKPSNTKVDKKVEPKSCDKTHTCPPCPAPPVAGPDVFLFPPKPKDTLMISRTPEVTCVVVDVSHEDPEVKFNWYVDGVEVHNAKTKPREEQYNSTYRVVSVLTVLHQDWLNGKEYKCKVSNKALPLPEEKTISKAKGQPREPQVYTLPPSREEMTKNQVSLTCLVKGFYPSDIAVEWESNGQPENNYKTTPPVLDSDGSFFLYSKLTVDKSRWQQGNVFSCSVMHEALHAHYTQKSLSLSPGK
light: DIQMTQSPSSLSASVGDRVTIKCQASQSIFSGLAWYQQKPGKAPKLLIYGASKLASGVPSRFSGSGSGTEFTLTISGLQPADFATYYCQSYYYSSSSSDGSYAFGGGTKLTVLGRTVAAPSVFIFPPSDEQLKSGTASVVCLLNNFYPREAKVQWKVDNALQSGNSQESVTEQDSKDSTYSLSSTLTLSKADYEKHKVYACEVTHQGLSSPVTKSFNRGEC
B1: in the test with TNFα [1], the “IC50 (read off the curve), L929 TNFα neutralisation [upper panel]” value was around 7 ng/mL. The “Fold change from wt” value in test [2] came out at 6.4 fold. Moreover, the “Fold change from IFX” value in test [3] was 2.7 fold. Also, the Kd with TNFα [4] is 0.00288 nM; in the test with CD16a(V) it was 68.7 nM; with CD16a(F), 110 nM; with CD16b(NA2), 470 nM; in test [5], 157 nM. Moreover, in the test with TNFα [4], the koff was 3.04e-05 s⁻¹. The molecule further registered a kon with TNFα [4] of 1.13e+07 M⁻¹ s⁻¹.

B2: Ab-wt (antibody, human IgG1, kappa)
heavy: not shown
light: B1 light
notes: Human IgG1 anti-TNFα antibody with a wild-type Fc region; also called parent antibody; wild-type antibody
For B2, in the test with TNFα [1], the “IC50 (read off the curve), L929 TNFα neutralisation [lower panel]” value (from here on “IC50 (read off the curve) … [lower panel]”) was around 7 ng/mL. Moreover, the dissociation constant Kd is 0.00413 nM with TNFα [4], 184 nM with CD16a(V), above 3000 nM with CD16b(NA2) and 1000 nM in test [5]. Also, the koff with TNFα [4] was 3.45e-05 s⁻¹. This molecule had an on-rate (kon) in the test with TNFα [4] of 8.37e+06 M⁻¹ s⁻¹.

B3: Ab-YTE-DLE-PVAΔG (antibody, human IgG1, kappa)
heavy: B1 heavy with M256Y, S258T, T260E, A438N
light: B1 light
Consider B3, for which the “IC50 (read off the curve) … [lower panel]” value with TNFα [1] was around 6 ng/mL. The “Fold change from wt” value in test [2] was 11.1 fold. The “Fold change from IFX” value in test [3] was determined as 4.7 fold. In addition, the equilibrium dissociation constant (Kd) with TNFα [4] was 0.00157 nM; in the test with CD16a(V), 117 nM; in the test with CD16b(NA2), 1030 nM; in test [5], 90 nM. Also, the koff with TNFα [4] came to 1.28e-05 s⁻¹. The molecule also came in with a kon in the test with TNFα [4] of 8.14e+06 M⁻¹ s⁻¹.

B4: Ab-A-AEA-PVAΔG (antibody, human IgG1, kappa)
heavy: B1 heavy with D243S, K330A, L334A, E337A
light: B1 light
In the case of B4, in the test with TNFα [1], the “IC50 (read off the curve) … [lower panel]” value was around 9 ng/mL. The figures for the Kd with TNFα [4], in the test with CD16a(V) and with CD16b(NA2) were 0.00251 nM, 260 nM and 5180 nM, respectively. This molecule also returned a koff with TNFα [4] of 2.19e-05 s⁻¹. This molecule gave a kon with TNFα [4] of 9.16e+06 M⁻¹ s⁻¹.

By Kd is commonly meant the equilibrium constant for the complex coming apart. What is called koff is the rate constant with which the complex falls apart. Read a high koff as fast dissociation. What is called kon is the rate constant with which the complex forms. Low values mean slow association, high ones fast association.
